Experimental data from patent US20260022175A1 (Chugai, published 2026).
Positions count from the first letter of the chain named. Blank lines part the entries; values can stand above or below the binder they belong to.

Columns and labels:
human CTLA4 [1] = target: T1, human CTLA4 (human); assay: SPR, 37C, antibody captured by anti-mouse IgG, ATP 100 uM
T1 construct: also called hCTLA4; hCTLA4-His-BAP

human CTLA4 [2] = target: T1, human CTLA4; assay: SPR, 37C, antibody captured by anti-mouse IgG, ATP 10 uM
human CTLA4 [3] = target: T1, human CTLA4; assay: SPR, 37C, antibody captured by anti-mouse IgG, ATP 1 uM
[4] = target: T2, mCTLA4-His (mouse CTLA4 extracellular region linked with a His-tag) (mouse, UniProt P09793 36-161); assay: SPR 37C, ATP 100 µM
[5] = target: T2, mCTLA4-His (mouse CTLA4 extracellular …); assay: SPR 37C, ATP 10 µM
[6] = target: T2, mCTLA4-His (mouse CTLA4 extracellular …); assay: SPR 37C, ATP 100 µM; remark: listed apart in the source
[7] = target: T3, human FcγRIIIa F extracellular domain (human, UniProt P08637 17-208); assay: SPR Biacore 8K+, antibody captured, FcγR as analyte, 1:1 Langmuir model; hFcγR IIIa F allotype
T3 construct: extracellular domain; also called hFcγR IIIa F

[8] = target: T4, human FcγRIIa R extracellular domain (human, UniProt P12318 34-217); assay: SPR Biacore 8K+; KD of G1d divided by KD of this antibody;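 also: antibodies captured on an anti-Fab-kappa streptavidin chip, soluble FcγR ectodomains flowed over, KD by steady-state fit for FcγRIIb and Langmuir kinetic model for the other receptors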
T4 construct: extracellular domain; also called hFcγR IIa R
T4 sequence (looked up): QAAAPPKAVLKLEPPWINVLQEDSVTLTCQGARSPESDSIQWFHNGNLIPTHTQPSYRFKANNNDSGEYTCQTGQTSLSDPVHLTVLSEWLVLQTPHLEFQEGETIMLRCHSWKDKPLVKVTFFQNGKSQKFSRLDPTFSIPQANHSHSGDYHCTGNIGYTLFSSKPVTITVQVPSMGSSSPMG

[9] = target: T5, human FcγRIIb extracellular domain (human, UniProt P31994 43-217); assay: as above
T5 construct: extracellular domain; also called hFcγR IIb
T5 sequence (looked up): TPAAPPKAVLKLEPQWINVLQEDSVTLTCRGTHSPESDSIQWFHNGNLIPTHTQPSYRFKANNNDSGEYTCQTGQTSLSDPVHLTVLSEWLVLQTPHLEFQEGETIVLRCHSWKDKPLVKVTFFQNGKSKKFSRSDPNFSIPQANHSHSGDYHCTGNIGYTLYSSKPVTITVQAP

[10] = target: T6, human FcγRIIa H extracellular domain (human, UniProt P12318 34-217); assay: as above
T6 construct: extracellular domain; also called hFcγR IIa H
T6 sequence (looked up): T4 sequence (looked up) with R134H

[11] = target: T7, human FcγRIIIa V extracellular domain (human, UniProt P08637 17-208); assay: as above
T7 construct: extracellular domain; also called hFcγR IIIa V

[12] = target: T3, human FcγRIIIa F extracellular domain; assay: as above
[13] = target: T8, human FcγRIa extracellular domain (human, UniProt P12314 16-292); assay: as above
T8 construct: extracellular domain; also called hFcγR Ia; hFcγRIa

[14] = target: T4, human FcγRIIa R extracellular domain; assay: SPR Biacore 8K+; KD for FcγRIIb divided by KD for this FcγR;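 also: antibodies captured on an anti-human Fab kappa SA chip with soluble human FcγR ectodomains flowed over, FcγRIIb KD from steady-state fit, other FcγR KD from Langmuir model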
[15] = target: T6, human FcγRIIa H extracellular domain; assay: as above
[16] = target: T7, human FcγRIIIa V extracellular domain; assay: as above
[17] = target: T3, human FcγRIIIa F extracellular domain; assay: as above
[18] = target: T7, human FcγRIIIa V extracellular domain; assay: SPR Biacore 8K+, antibody captured, FcγR as analyte, 1:1 Langmuir model; hFcγR IIIa V allotype
[19] = target: T4, human FcγRIIa R extracellular domain; assay: SPR Biacore 8K+, antibody captured, FcγR as analyte, 1:1 Langmuir model;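 also: antibodies captured on a streptavidin chip through a biotinylated anti-human Fab kappa reagent, with FcγR extracellular domains injected in pH 7.4 phosphate buffer at 25 °C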
[20] = target: T6, human FcγRIIa H extracellular domain; assay: as above
[21] = target: T8, human FcγRIa extracellular domain; assay: as above
[22] = target: T5, human FcγRIIb extracellular domain; assay: SPR Biacore 8K+, antibody captured, FcγR as analyte, steady state affinity model
[23] = target: hFcγRIIIaV on hFcγRIIIaV-expressing Jurkat cells (human, UniProt P08637 17-254); assay: cell-based or functional assay
[24] = target: T9, hFcγRIIaH on hFcγRIIaH-expressing Jurkat cells (human, UniProt P12318 34-317); assay: cell-based or functional assay
T9 sequence (looked up): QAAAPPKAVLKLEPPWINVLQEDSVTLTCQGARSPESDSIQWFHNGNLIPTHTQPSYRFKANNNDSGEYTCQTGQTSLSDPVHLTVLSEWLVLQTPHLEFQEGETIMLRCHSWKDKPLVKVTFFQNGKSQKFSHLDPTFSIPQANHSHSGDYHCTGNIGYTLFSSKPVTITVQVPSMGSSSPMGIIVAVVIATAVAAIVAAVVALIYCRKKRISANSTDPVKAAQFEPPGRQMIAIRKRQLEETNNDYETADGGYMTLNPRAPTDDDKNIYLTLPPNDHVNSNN

T1 sequence (chain, as listed by the source limits assumed): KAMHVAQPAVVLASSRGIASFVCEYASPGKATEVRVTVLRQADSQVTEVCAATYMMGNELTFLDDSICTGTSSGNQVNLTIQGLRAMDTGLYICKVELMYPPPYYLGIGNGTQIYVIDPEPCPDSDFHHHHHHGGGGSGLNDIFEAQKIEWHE
T3 sequence (P08637 17-208): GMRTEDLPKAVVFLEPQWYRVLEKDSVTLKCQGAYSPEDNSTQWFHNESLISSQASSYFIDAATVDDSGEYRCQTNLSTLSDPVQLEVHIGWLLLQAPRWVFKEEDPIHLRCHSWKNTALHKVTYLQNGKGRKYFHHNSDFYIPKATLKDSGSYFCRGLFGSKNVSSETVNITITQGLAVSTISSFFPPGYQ
T7 sequence (P08637 17-208 F176V limits assumed): as the sequence (P08637 17-208) above, with F160V counted along it
T8 sequence (P12314 16-292): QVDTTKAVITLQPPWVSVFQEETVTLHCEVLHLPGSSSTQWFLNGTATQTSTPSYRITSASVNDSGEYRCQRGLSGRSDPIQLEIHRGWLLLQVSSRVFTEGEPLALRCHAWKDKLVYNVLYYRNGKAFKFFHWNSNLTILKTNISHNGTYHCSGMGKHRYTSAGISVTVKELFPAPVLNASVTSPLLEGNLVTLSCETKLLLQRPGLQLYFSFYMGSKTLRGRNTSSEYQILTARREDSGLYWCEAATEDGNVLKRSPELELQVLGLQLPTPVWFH
hFcγRIIIaV on hFcγRIIIaV-expressing Jurkat cells, sequence (P08637 17-254, form in doubt): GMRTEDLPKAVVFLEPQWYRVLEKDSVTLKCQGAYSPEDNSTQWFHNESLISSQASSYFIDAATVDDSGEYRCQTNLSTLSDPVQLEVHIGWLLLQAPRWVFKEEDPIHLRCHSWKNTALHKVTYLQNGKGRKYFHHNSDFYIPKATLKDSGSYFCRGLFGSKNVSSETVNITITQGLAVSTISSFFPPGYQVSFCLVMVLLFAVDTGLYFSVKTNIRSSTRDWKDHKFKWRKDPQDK

Kd (human CTLA4 [1]): 8.9 nM
Kd (human CTLA4 [2]): 18 nM
Kd (human CTLA4 [3]): 51 nM
B1: 04H1389-mFa55/04L1305-mk1 (antibody, mouse IgG2a, kappa)
heavy: EVQLVESGGGLVKPGGSLRLSCAASGFTFSSKTMNWVRQAPGKGLEWVSSISTQSHYIYYAESVKGRFTISRDNAKNSLYLQMNSLRAEDTAVYYCARYGKREDMLWVFDYWGQGTLVTVSSAKTTAPSVYPLAPVCGDTTGSSVTLGCLVKGYFPEPVTLTWNSGSLSSGVHTFPAVLQSDLYTLSSSVTVTSSTWPSQSITCNVAHPASSTKVDKKIEPRGPTIKPCPPCKCPAPNLLGGPDVFIFPPKIKDVLMISLSPIVTCVVVDVSEDDPDVQISWFVNNVEVHTAQTQTHREDYNSTLRVVSALPIQHQDWMSGKEFKCKVNNKDLPAPIERTISKPKGSVRAPQVYVLPPPEEEMTKKQVTLTCMVTDFMPEDIYVEWTNNGKTELNYKNTEPVLDSDGSYFMYSKLRVEKKNWVERNSYSCSVVHEGLHNHHTTKSFSRTPGK
light: DIVMTQSPLSLPVTPGEPASISCDGPSTGVGDYNYVHWYQQKPGQAPRLLIYFTSKKPSGVPDRFSGSGSGTDFTLKISRVEAEDVGVYYCQTYAAPLGPMFGQGTKLEIKRADAAPTVSIFPPSSEQLTSGGASVVCFLNNFYPKDINVKWKIDGSERQNGVLNSWTDQDSKDSTYSMSSTLTLTKDEYERHNSYTCEATHKTSTSPIVKSFNRNEC
notes: Mouse constant regions mFa55 and mk1; also called SW1389-mFa55

Kd [4]: 16 nM
Kd [5]: 84 nM
fold weaker than its binding ability to human CTLA4 [6]: ~2 times
B2: 04H1208-G1m/04L1407-k0MT (antibody, human IgG1, kappa, V domains shown)
VH: EVQLVESGGGLVKPGGSLRLSCAASGFTFSSKTMNWVRQAPGKGLEWVSSISTRSGYIYYARSVKGRFTISRDNAKNSLYLQMNSLRAEDTAVYYCARYGKREDMLWVFDYWGQGTLVTVSS
VL: DIVMTQSPLSLPVTPGEPASISCDGPSTDVGDYNWVHWYQQKPGQAPRLLIYYTSSKPEGVPDRFSGSGSGTDFTLKISRVEAEDVGVYYCQTYAAPLGPTFGQGTKLEIKR

Kd [7]: 66.1 nM
Relative value to KD between G1d and hFcgRs [8]: 24.7
Relative value to KD between G1d and hFcgRs [9]: 8
Relative value to KD between G1d and hFcgRs [10]: 16.4
Relative value to KD between G1d and hFcgRs [11]: 15.1
Relative value to KD between G1d and hFcgRs [12]: 44.7
Relative value to KD between G1d and hFcgRs [13]: 6.2
A/I ratio (KD for FcγRIIb divided by KD for each FcγR) [14]: 18.6
A/I ratio (KD for FcγRIIb divided by KD for each FcγR) [15]: 18.2
A/I ratio (KD for FcγRIIb divided by KD for each FcγR) [16]: 52.6
A/I ratio (KD for FcγRIIb divided by KD for each FcγR) [17]: 18.9
Kd [18]: 23.8 nM
Kd [19]: 67 nM
Kd [20]: 68.6 nM
Kd [21]: 0.0145 nM
Kd [22]: 1250 nM
EC50 value (hFcγRIIIaV ADCC Reporter Bioassay, Hepa1-6/hEREG target cells) [23]: 3.7 ng/mL
EC50 value (hFcγRIIaH ADCP Reporter Bioassay, Hepa1-6/hEREG target cells) [24]: 14.9 ng/mL
B3: H240-Kn037/L73-k0//H240-Hl036/L73-k0 (antibody, human IgG1, kappa)
heavy 1: QDQLVQSGAEVKKPGASVKVSCKASGFNIKDTYIQWVRQAPGQGLEWMGRIDPLRKQTKYREKFEGRVTITADTSTNTAYMELSSLRSEDTAVYYCVRSGREFDYWGQGTLVTVSSASTKGPSVFPLAPSSKSTSGGTAALGCLVKDYFPEPVTVSWNSGALTSGVHTFPAVLQSSGLYSLSSVVTVPSSSLGTQTYICNVNHKPSNTKVDKKVEPKSCDKTHTCPPCPAPELLAGPDVFLFPPKPKDTLMISRTPEVTCVVVDVSHEDPEVKFNWYVDGVEVHNAKTKPREEQYNSTYRVVSVLTVLHQDWLNGKEYKCKVSNKALPAPEEKTISKAKGQPREPQVCTLPPSRDELTKNQVSLWCLVKGFYPSDIAVEWESNGQPENNYKTTPPVLDSDGSFFLYSKLTVDKSRWQQGNVFSCSVMHEALHNHYTQKSLSLSP
heavy 2: B3 heavy 1 with C348Y, D355C, W365S, L367A, Y406V
light: DIQMTQSPSSLSASVGDRVTITCRASQDIHKYIAWYQQKPGQAPRLLIQYTSTLQPGVPSRFSGSGSGTDYTFTISSLQPEDIATYYCLQYEQLRTFGGGTKVEIKRTVAAPSVFIFPPSDEQLKSGTASVVCLLNNFYPREAKVQWKVDNALQSGNSQESVTEQDSKDSTYSLSSTLTLSKADYEKHKVYACEVTHQGLSSPVTKSFNRGEC
notes: also called EGL-GASDIE; GASDIE
